Assay results reported in patent US20230147657A1 (INSERM INSTITUT NATIONAL DE LA SANT ET DE LA RECHERCHE M …, published 2023).

T1: human CD45RC (human, UniProt P08575 26-1306)
T1 construct: Native protein on human blood leukocytes / PBMC / T cells of healthy volunteers; also called hCD45RC
T1 sequence: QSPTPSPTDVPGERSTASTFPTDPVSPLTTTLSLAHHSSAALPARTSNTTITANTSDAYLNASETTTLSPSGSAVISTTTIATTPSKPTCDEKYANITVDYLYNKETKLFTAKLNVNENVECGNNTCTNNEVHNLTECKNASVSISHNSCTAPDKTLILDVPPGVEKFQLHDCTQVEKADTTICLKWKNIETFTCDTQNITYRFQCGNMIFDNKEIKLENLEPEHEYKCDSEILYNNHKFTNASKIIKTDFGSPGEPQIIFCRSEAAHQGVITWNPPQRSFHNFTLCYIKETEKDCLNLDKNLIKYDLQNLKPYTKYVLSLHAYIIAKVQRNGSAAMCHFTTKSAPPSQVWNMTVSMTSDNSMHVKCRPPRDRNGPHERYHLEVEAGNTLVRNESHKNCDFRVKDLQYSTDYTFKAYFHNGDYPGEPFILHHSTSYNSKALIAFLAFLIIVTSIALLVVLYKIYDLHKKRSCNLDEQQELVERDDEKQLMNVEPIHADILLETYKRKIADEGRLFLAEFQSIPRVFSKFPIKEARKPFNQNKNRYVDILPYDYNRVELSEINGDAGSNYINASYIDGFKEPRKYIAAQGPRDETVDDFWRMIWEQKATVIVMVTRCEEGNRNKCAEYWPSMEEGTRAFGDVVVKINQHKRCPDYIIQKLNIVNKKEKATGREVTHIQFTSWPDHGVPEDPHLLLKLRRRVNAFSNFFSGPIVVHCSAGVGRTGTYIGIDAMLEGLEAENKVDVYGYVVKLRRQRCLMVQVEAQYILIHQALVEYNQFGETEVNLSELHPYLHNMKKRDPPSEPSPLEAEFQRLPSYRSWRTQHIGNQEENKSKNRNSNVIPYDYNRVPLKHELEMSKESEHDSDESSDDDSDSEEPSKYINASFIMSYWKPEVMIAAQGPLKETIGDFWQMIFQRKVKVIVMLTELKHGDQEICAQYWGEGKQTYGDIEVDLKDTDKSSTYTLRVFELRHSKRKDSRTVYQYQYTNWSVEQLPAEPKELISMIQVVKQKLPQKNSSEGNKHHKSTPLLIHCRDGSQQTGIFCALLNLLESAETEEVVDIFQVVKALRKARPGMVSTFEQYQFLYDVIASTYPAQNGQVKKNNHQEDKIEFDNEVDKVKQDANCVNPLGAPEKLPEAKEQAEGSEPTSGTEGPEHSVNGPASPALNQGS

B1: Anti-45RC Variant A (antibody, human IgG1, kappa, V domains shown)
VH: QVQLVQSGAEVKKPGASVKVSCKASGYTFTNYYIGWVRQAPGQGLEWIGDIFPGGDYANSNEKFKGRVTLTADTSISTAYMELSRLRSDDTVVYYCVRRNFDYWGQGTLVTVSS
VL: DIQLTQSPSFLSASVGDRVTITCSASSSVSYMHWFQQKPGKAPKLWIYNTSNLPSGVPSRFSGSGSGTEYTLTISSLQPEDFATYYCQQRSSYPLTFGGGTKVEIKR
notes: also called humanized ABIS-45RC variant A
B2: Anti-45RC Variant C (antibody, human IgG1, kappa, V domains shown)
VH: QVQLVQSGAEVKKPGASVKVSCKASGYTFTNYYIGWVRQAPGQGLEWIGDIFPGGDYANSNEKFKGRVTLTADTSISTAYMELSRLRSDDTVVYYCVRRNFDYWGQGTLVTVSS
VL: EIVLTQSPATLSLSPGERATLSCSASSSVSYMHWFQQKPGQAPRLWIYNTSNLPSGIPARFSGSGSGTDYTLTISSLEPEDFAVYYCQQRSSYPLTFGGGTKVEIKR
notes: also called humanized ABIS-45RC variant C
B3: Anti-45RC Variant B (antibody, human IgG1, kappa, V domains shown)
VH: QVQLVQSGAEVKKPGASVKVSCKASGYTFTNYYIGWVRQAPGQGLEWIGDIFPGGDYANSNEKFKGRVTLTADTSISTAYMELSRLRSDDTVVYYCVRRNFDYWGQGTLVTVSS
VL: EIVLTQSPDFQSVTPKEKVTITCSASSSVSYMHWFQQKPDQSPKLWIYNTSNLPSGVPSRFSGSGSGTDYTLTINSLEAEDAATYYCQQRSSYPLTFGGGTKVEIKR
notes: also called humanized ABIS-45RC variant B
B4: Anti-45RC Variant D (antibody, human IgG1, kappa, V domains shown)
VH: EVQLVQSGAEVKKPGESLKISCKASGYTFTNYYIGWVRQMPGKGLEWIGDIFPGGDYANSNEKFKGQVTLSADKSISTAYLQLSSLKASDTAMYYCVRRNFDYWGQGTLVTVSS
VL: DIQLTQSPSFLSASVGDRVTITCSASSSVSYMHWFQQKPGKAPKLWIYNTSNLPSGVPSRFSGSGSGTEYTLTISSLQPEDFATYYCQQRSSYPLTFGGGTKVEIKR
notes: also called humanized ABIS-45RC variant D
B5: Anti-45RC Variant E (antibody, human IgG1, kappa, V domains shown)
VH: EVQLVQSGAEVKKPGESLKISCKASGYTFTNYYIGWVRQMPGKGLEWIGDIFPGGDYANSNEKFKGQVTLSADKSISTAYLQLSSLKASDTAMYYCVRRNFDYWGQGTLVTVSS
VL: EIVLTQSPDFQSVTPKEKVTITCSASSSVSYMHWFQQKPDQSPKLWIYNTSNLPSGVPSRFSGSGSGTDYTLTINSLEAEDAATYYCQQRSSYPLTFGGGTKVEIKR
notes: also called humanized ABIS-45RC variant E
B6: Anti-45RC Variant G (antibody, human IgG1, kappa, V domains shown)
VH: QVQLVESGGGLVKPGGSLRLSCAASGYTFTNYYIGWIRQAPGKGLEWIGDIFPGGDYANSNEKVKGRFTLSADTAKNSAYLQMNSLRAEDTAVYYCVRRNFDYWGQGTLVTVSS
VL: EIVLTQSPDFQSVTPKEKVTITCSASSSVSYMHWFQQKPDQSPKLWIYNTSNLPSGVPSRFSGSGSGTDYTLTINSLEAEDAATYYCQQRSSYPLTFGGGTKVEIKR
notes: also called humanized ABIS-45RC variant G
B7: Anti-45RC Variant F (antibody, human IgG1, kappa, V domains shown)
VH: EVQLVQSGAEVKKPGESLKISCKASGYTFTNYYIGWVRQMPGKGLEWIGDIFPGGDYANSNEKFKGQVTLSADKSISTAYLQLSSLKASDTAMYYCVRRNFDYWGQGTLVTVSS
VL: EIVLTQSPATLSLSPGERATLSCSASSSVSYMHWFQQKPGQAPRLWIYNTSNLPSGIPARFSGSGSGTDYTLTISSLEPEDFAVYYCQQRSSYPLTFGGGTKVEIKR
notes: also called humanized ABIS-45RC variant F

Biological target: T1, human CD45RC
Assay: flow cytometry on T cells of human PBMC; biotin anti-human IgG + streptavidin PerCP-Cy5.5

Point of comparison: B1, “% of T cells in the CD45RC gate at 1 µg/mL” value 58.2%. Against it:
- B2 — higher, 63.3%
- B3 — lower, 43.9%
- B4 — lower, 57.2%

Point of comparison: B4, “% of T cells in the CD45RC gate at 2 µg/mL” value 59.5%. Against it:
- B1 — higher, 60.2%
- B2 — higher, 63.7%
- B3 — lower, 32.7%

Biological target: T1, human CD45RC
Assay: as above
Remark: another data set of the same source

Point of comparison: B7, “% of T cells in the CD45RC gate at 1 µg/mL” value 58.8%. Against it:
- B5 — lower, 53.7%
- B6 — lower, 55.7%

Point of comparison: B5, “% of T cells in the CD45RC gate at 2 µg/mL” value 48.9%. Against it:
- B6 — higher, 54.2%
- B7 — higher, 57.2%
